One may read the stoichiometry N as the number of molecules, sites or subunits per partner or assembly.

“And” between values parts separate entries of the source, which are not always exact repeats. Equal entries are not always repeated.

For this experiment, the target named is Hfq-FLAG (Yersinia pestis Hfq with C-terminal 3×FLAG tag) (Yersinia pestis). The experiment can be described thus: […]; 25 mM Tris-HCl (pH 8.0) […].

As for “Hfq-FLAG (Yersinia pestis Hfq with C-terminal 3×FLAG tag) (natural protein)”, the stoichiometry N was 3 and 6.

For the origin of these results see publication PMC6635623.
